Assay results: patent US7083949

Key:
Assay in all cases: cell-based or functional assay
[1] = molecular target: recombinant human IL-1 (human)
[2] = molecular target: human IL-13 (human) (UniProt P35225)
[3] = molecular target: human IL-4 (human) (UniProt P05112)
[4] = molecular target: human IL-6 (human) (UniProt P05231)
[5] = molecular target: recombinant human IL-13 (E. coli) (human) (UniProt P35225)
Chain of recombinant human IL-13 (E. coli) (human) (P35225 35-146 limits assumed): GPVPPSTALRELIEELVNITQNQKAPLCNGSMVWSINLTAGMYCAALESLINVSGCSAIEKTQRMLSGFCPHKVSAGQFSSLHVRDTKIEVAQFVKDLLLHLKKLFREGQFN

Chain of human IL-4 (human) (P05112 25-153 limits assumed): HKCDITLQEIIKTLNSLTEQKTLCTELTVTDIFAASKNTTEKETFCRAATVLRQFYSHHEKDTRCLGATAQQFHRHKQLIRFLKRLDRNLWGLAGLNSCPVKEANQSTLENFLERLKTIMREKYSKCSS
Chain of human IL-13 (human) (P35225 35-146 limits assumed): as the sequence (P35225 35-146 limits assumed) above
Chain of human IL-6 (human) (P05231 30-212 limits assumed): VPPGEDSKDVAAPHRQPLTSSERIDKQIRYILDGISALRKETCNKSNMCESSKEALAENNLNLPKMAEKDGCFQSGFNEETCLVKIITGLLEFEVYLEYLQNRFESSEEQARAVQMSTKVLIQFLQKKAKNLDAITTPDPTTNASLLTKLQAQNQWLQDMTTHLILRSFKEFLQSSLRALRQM

Row | Substance | TF1 cell proliferation (MTS); IL-13 concentration at which growth is inhibited by 50% with 10 nM Trap [2] | TF1 cell proliferation (MTS); highest IL-13 concentration blocked by 10 nM Trap [2] | TF1 cell proliferation (MTS); IL-4 concentration at which growth is inhibited by 50% with 10 nM Trap [3] | TF1 cell proliferation (MTS); highest IL-4 concentration blocked by 10 nM Trap [3] | inhibition of IL-6-dependent proliferation of XG-1 cells (MTT) (fold molar excess over IL-6) [4] | other results
1 | human IL-1 Trap (Fc fusion) |  |  |  |  |  | serum IL-6 in mice after injection of human IL-1 (in vivo) (fold molar excess) [1]: 150
2 | IL-4Rα.IL-13Rα1.Fc (Fc fusion) | 4 to 5 nM | 2 nM | 3 to 4 nM | 1 nM |  | 
3 | IL-13Rα1.IL-4Rα.Fc (Fc fusion) | 4 to 5 nM | 2 nM | 3 to 4 nM | 1 nM |  | 
4 | gp130-Fc homodimer (Fc fusion) |  |  |  |  | > 1000 | 
5 | gp130-Fc-CNTFRα-Fc ligand Trap (Fc fusion) |  |  |  |  | > 1000 | 
6 | IL-4/IL-13 Trap 1132 (Fc fusion) |  |  |  |  |  | IC50, TF1 cell proliferation with 15 pM IL-13 (E. coli; Preprotech), MTS [5]: 64 pM
